Test results: paper PMC6501848 (Nature cell biology, 2019)

B1: human CAP2 with C-terminal GFP and Strep-tag II (natural protein)
chain: MANMQGLVERLERAVSRLESLSAESHRPPGNCGEVNGVIAGVAPSVEAFDKLMDSMVAEFLKNSRILAGDVETHAEMVHSAFQAQRAFLLMASQYQQPHENDVAALLKPISEKIQEIQTFRERNRGSNMFNHLSAVSESIPALGWIAVSPKPGPYVKEMNDAATFYTNRVLKDYKHSDLRHVDWVKSYLNIWSELQAYIKEHHTTGLTWSKTGPVASTVSAFSVLSSGPGLPPPPPPLPPPGPPPLFENEGKKEESSPSRSALFAQLNQGEAITKGLRHVTDDQKTYKNPSLRAQGGQTQSPTKSHTPSPTSPKSYPSQKHAPVLELEGKKWRVEYQEDRNDLVISETELKQVAYIFKCEKSTIQIKGKVNSIIIDNCKKLGLVFDNVVGIVEVINSQDIQIQVMGRVPTISINKTEGCHIYLSEDALDCEIVSAKSSEMNILIPQDGDYREFPIPEQFKTAWDGSKLITEPAEIMA
B2: INF2-Cterm labeled with tetramethylrhodamine (domain or fragment)
chain: not shown
modifications: tetramethylrhodamine-succinimide (TMR) label

Tests used:
[1] = target: rabbit skeletal muscle actin (rabbit, UniProt P68135 1-377); assay: pull-down
[2] = target: fluorescently-labeled rabbit skeletal muscle actin (TMR-actin) (rabbit, UniProt P68135 1-377, TAMRA label (TAMRA NHS ester)); assay: pull-down
[3] = target: chicken skeletal muscle actin (chicken, UniProt P68139 1-377); assay: pull-down
[4] = target: the molecule itself; assay: AUC
[5] = target: INF2-Nterm (human, UniProt Q27J81 1-420); assay: fluorescence polarisation
Chain of INF2-Nterm (Q27J81 1-420): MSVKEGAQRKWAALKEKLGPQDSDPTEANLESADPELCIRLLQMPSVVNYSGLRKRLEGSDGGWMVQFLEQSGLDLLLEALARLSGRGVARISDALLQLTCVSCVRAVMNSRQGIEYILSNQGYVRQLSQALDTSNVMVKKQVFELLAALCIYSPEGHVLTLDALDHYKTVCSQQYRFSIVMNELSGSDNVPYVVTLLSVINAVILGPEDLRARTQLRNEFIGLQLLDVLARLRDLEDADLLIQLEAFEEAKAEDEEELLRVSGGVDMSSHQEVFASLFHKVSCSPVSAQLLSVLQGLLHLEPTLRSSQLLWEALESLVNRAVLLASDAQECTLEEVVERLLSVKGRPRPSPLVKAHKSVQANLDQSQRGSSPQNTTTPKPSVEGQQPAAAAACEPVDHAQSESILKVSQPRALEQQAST

Binder | binding result [1] | binding result [2] | binding result [3] | stoichiometry N [4] | Kd [5] [µM]
B1 | binds | binds | binds | 6 | –
B2 | – | – | – | – | ~28
